Test results published in patent publication US20150094219A1.

How the values were obtained:
[1] = molecular target: thrombin protease (Amersham Biosciences); test: cell-based or functional assay
GFP^2-RG-RLuc2 (GTR2) = GFP^2-RG-RLuc2 (GTR2) (UniProt P27652)
[2] = molecular target: GFP^2-RG-RLuc fusion protein (UniProt P27652)
GFP^2-RG-RLuc fusion protein, sequence (P27652 other isoform, or with tags, fused parts or gaps): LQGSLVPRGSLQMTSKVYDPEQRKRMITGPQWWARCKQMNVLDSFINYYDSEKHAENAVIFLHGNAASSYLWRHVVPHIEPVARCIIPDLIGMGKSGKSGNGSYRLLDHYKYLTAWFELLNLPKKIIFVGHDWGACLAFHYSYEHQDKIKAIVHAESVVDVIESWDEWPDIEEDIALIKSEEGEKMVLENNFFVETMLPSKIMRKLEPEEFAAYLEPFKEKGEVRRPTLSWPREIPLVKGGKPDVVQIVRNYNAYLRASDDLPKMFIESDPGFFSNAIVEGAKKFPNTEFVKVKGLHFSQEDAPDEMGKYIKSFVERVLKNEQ

Recombinant hirudin from yeast (Sigma), sequence (P01050 whole entry): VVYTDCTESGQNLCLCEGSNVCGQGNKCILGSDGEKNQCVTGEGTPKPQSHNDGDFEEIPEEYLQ
GFP^2-RG-RLuc2 (GTR2), sequence (P27652 other isoform, or with tags, fused parts or gaps): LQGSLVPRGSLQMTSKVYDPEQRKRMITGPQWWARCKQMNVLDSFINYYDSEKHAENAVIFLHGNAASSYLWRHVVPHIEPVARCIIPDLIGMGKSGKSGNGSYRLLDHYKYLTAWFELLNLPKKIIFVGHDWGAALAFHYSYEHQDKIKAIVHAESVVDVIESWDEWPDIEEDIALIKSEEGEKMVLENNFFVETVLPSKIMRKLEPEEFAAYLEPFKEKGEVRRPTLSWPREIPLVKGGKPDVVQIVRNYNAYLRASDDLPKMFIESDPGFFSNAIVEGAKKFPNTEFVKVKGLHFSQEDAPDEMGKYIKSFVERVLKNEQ

Row | Substance | BRET^H ratio of the sensor with thrombin after pre-addition of hirudin [1] | change of BRET^2 ratio of GTR2 after 2 units of thrombin in diluted milk and orange juice (GFP^2-RG-RLuc2 (GTR2)) | BRET^H ratio following thrombin cleavage [2] | SDS-PAGE of the sensor after thrombin treatment [2] | bioluminescence spectrum of the sensor after thrombin [2] | change of BRET^2 ratio (GFP/RLuc) at 270 pM thrombin [2] | decrease in BRET^2 signal, on-chip mixing of 1 µM sensor with 540 nM thrombin and substrate [2] | decrease of the BRET^H ratio following thrombin cleavage [2] | detection limit for thrombin, microchip BRET^H [2] | detection limit for thrombin, microplate BRET^H [2] | hybrid BRET ratio following thrombin cleavage [2] | lowest thrombin concentration observable in real time (120 seconds), side-by-side network [2] | lowest thrombin concentration tested and detected, pancake stack network [2] | thrombin concentration detected easily, pancake stack network (478 second residence time) [2] | upper end of the linear change of BRET^H ratio with thrombin concentration, microfluidic [2] | upper end of the linear change of BRET^H ratio with thrombin concentration, microplate [2]
1 | Recombinant hirudin from yeast (Sigma) (from UniProt P01050 1-65) | 1.08 |  |  |  |  |  |  |  |  |  |  |  |  |  |  | 
2 | thrombin protease (Amersham Biosciences) |  | Thrombin activity was detected in 1/10 dilutions of milk and orange juice | from 1.11±0.06 to 0.75±0.04 | the fusion protein was cleaved into two components with molecular weights of 32.4 KDa and 36.4 KDa | Upon thrombin cleavage the green component of the spectrum was reduced | 10 fold | Approximately 75% decrease in BRET^2 signal | by approximately 32% | 27 pM | 310 pM | 0.79 | 540 nM | Thrombin was detected down to 14 nM, the lowest concentration tested | 27 nM thrombin could be detected easily | up to 0.24 nM for microfluidic measurements | 2.7 nM for microplate measurements
